From the supplement of paper PMC9170038

How the values were obtained:
MS2 coat protein = experiment: apparent KD of MS2 coat protein; higher = weaker reporter binding; settings: Eterna round: R107
Procedure: (§1)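 RNA-MaP round R107: designed RNA switches with theophylline, tryptophan, arginine or FMN aptamers are transcribed on-chip within common flanks. They are titrated with SNAP-549-labelled MS2 coat protein in RNA-MaP buffer (100 mM Tris pH 7.5, 80 mM KCl, 4 mM MgCl2), without ligand or with the indicated ligand. Median apparent KD per design.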

[1] = system: K4 kissing-loop RNA reporter; experiment: apparent KD of K4 kissing-loop reporter; higher = weaker reporter binding; settings: Eterna round: R107;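 further: bound reporter read as fluorescence of individual clusters on recovered sequencing chips by microscopy, with normalized cluster intensities fitted with a binding model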
Procedure: as §1, with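 “a labelled K4 kissing-loop RNA reporter” for “SNAP-549-labelled MS2 coat protein”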

[2] = input ligand: theophylline 20 uM
[3] = input ligand: theophylline 2 mM
[4] = input ligand: tryptophan 2.4 mM

Row | Sequence | apparent KD of MS2 coat protein (MS2 coat protein; input ligand: arginine 13.2 mM) [nM] | apparent KD of MS2 coat protein (MS2 coat protein; input ligand: none) [nM] | apparent KD of MS2 coat protein (MS2 coat protein; [2]) [nM] | apparent KD of MS2 coat protein (MS2 coat protein; [3]) [nM] | apparent KD of MS2 coat protein (MS2 coat protein; [4]) [nM] | apparent KD of K4 kissing-loop reporter ([1]; input ligand: FMN 200 uM) [nM] | apparent KD of K4 kissing-loop reporter ([1]; input ligand: arginine 13.2 mM) [nM] | apparent KD of K4 kissing-loop reporter ([1]; input ligand: none) [nM] | apparent KD of K4 kissing-loop reporter [1, 2] [nM] | apparent KD of K4 kissing-loop reporter [1, 4] [nM]
1 | UCGUAGGUAGGAAGGAGCGCAUACUUCACAUGAGGAUCACCCAUGUCGAGACGUGAGUCAGUGCAGGUAGGUCGCCUAGCUAUGA [Same State - Arginine B (Freestyle 25)] | 18.2 | 26 | 35.7 | 28.3 | 18.7 | – | – | – | – | –
2 | AACAUGAGGAUCACCCAUGUCGGGCCGGUGCGAGGACCGGUACGGCCGCCACUCGAGACAUGAGGAUCACCCAUGUAGGGCGAGA [Exclusion Tryptophan A GF22] | 44 | 79.7 | 70.7 | 80.7 | 115 | – | – | – | – | –
3 | UGUGACAUGAGGAUCACCCAUGUAAGGGAAGGAGCGCCGAAUAAGGCAGGUAGGUCGCCCAAGAUAGAAGAAUAAUAAGAUUGUG [Arginine A Same State; Euphoria Solution] | 20.8 | 27.1 | 39.9 | 27.9 | 28.3 | – | – | – | – | –
4 | GGUUGGUCGCAGGAUACCAGUCCACCCGUGAUACUGCUAAACAUGAGGAUCACCCAUGUCGACCCUUGGCAGCCUGUCCAUGCGU [theeternabot_exclusion_MS2_Theo_B_45] | 18.8 | – | 27.3 | – | 17.1 | – | – | – | – | –
5 | AGCGACAUGCGUGAUACCAGCUACAUGAGGAUCACCCAUGUCAGCAGGGAACUGCUGUGUAGCCCUUGGCAGCACAGUGCAUGUC [Exclusion - Theophylline B (Freestyle 29)] | 13 | 10.8 | 12.3 | 23.1 | 10.2 | – | – | – | – | –
6 | GCGUUCUCUGCGGCCGCCACUCAAGGAGCUACAUAGCUCCUAGACAUGAGGAUCACCCAUGUCGCGAGGACCGGGUAGAUCCUUA [Same State Typptophan B GF8] | 116 | 159 | 288 | 360 | 120 | – | – | – | – | –
7 | UUACGAGUGAUGUUCGAAUAAAUCCAUUCAGAGGAUAUAGUAUUAACUAGAAGGCUGAAACCAACUUCGAGUCAUGUUCGAGGAU [Same State FMN A GF 2] | – | – | – | – | – | 271 | 324 | 277 | 514 | 269
8 | UGUCUUCAGUGAUGUUGAUGACAACACUUAAAGGAUAUGCGAGAGAGCAGAAGGUUAAACAACGCGCAAAUCAAGGAGGGUCUAG [theeternabot_exclusion_KL_FMN_A_30] | – | – | – | – | – | 193 | 161 | 178 | 196 | 174
9 | UUUCGGCCCAGUGAUGUUGGGUGGAGGCGGCGAGGACCGGUACGGCCGCCACUCGGCGCACUGGCGGAGUGAUGUUUCGUGUAUA [Same State Tryptophan A GF 14] | – | – | – | – | – | 697 | 592 | 752 | 708 | 834
10 | UGUAUGUGAUUUGAUACCAGACCAGCUGGAGGAAUCUGAGUGAUGUUCAGGUAGGUUUGGGUCCCUUGGCAGCAAAUCGCAUACU [KL-SSTheoB17] | – | – | – | – | – | 251 | 196 | 236 | 192 | 209
11 | GCCUUAUAUCCAGCUACAGCUCUUUUUGGUCGAGGACCGGUACGGCCGCCACUCGAAUGAUAGUGAUGUUAUCGUUUUGUACUAA [JR_Nu_ExcTryptoA_Sub024] | – | – | – | – | – | 97.9 | 112 | 108 | 101 | 54.7
12 | GUAUAAGUGGGCGAUACCAGCUGUCGGUAGUGAUGUUAUUCAGCAGUCAGGAAGUUCGCUAGCCCUUGGCAGCGCCAGUGGUGAC [theeternabot_exclusion_KL_Theo_B_19] | – | – | – | – | – | 383 | 324 | 416 | 351 | 341
13 | GGAUUGCCAGUGAUGUUGGCAUAAUCUGAAGGAGCGCGUGAAAACGCAGGUAGGUCGCAGAACCUUGCCAACUGAUCGAAAGAUC [Ex Arginine A K4 30] | – | – | – | – | – | 145 | 165 | 155 | 185 | 150
14 | GCCAUCAGGUCGCAAGACCUGAUAGCCGAUACCAGCGCGAAGGUGCGCCCUUGGCAGCGGCACCGAGUGAUGUUCGGUCAGGCGG [#2 Same State - Theophylline A Attempt #3 (HarryS)] | – | – | – | – | – | 490 | 490 | 595 | 291 | 554
15 | GCUAUGGUAGGAAGGAGCGCUGCGUUGUUUUUACGAGUGAUGUUCGGAAGCGGCGUGUUAAAGCAGGUAGGUCGCCUACUAUAGC [Arginine B K4 24] | – | – | – | – | – | 162 | 135 | 184 | 172 | 154
16 | UGUACCGAGUCAGGAUAUCAACGACUGACAAAAGUCGGUCGAAUAUCCAGUGAUGUUGGAAAUAAAUGAGAAGGGACUUGGUACU [FmnBS 14 #SwitchBubble #StaticStem] | – | – | – | – | – | 125 | 258 | 276 | 264 | 265
17 | UAGUCCUAGUGAUCGUUAUCAAGUGGUGGGCGAGGACCGGUACGGCCGCCACUCGACUAUGCAGUGAUGUUGCAAUCCGGACAAU [Exclusion - Tryptophan A (Freestyle 14)] | – | – | – | – | – | 209 | 238 | 222 | 254 | 213
18 | AGUGUUAGGUUAGAUACCAGCCGUUCGUGAAUAAUCCUCGAACCGCCAGUGAUGUUGGCAGGCCCUUGGCAGCUAACAGAACAGA [Maxeusla] | – | – | – | – | – | 243 | 216 | 207 | 170 | 223
19 | GCGGACAUUCGCAGUGAUGUUGCGACGGAAGGAGCGCGUGAAAACGCAGGUAGGUCGCCGACAAAAUUAAUUUUAAUGUGUUCGC [Arginine A K4 30] | – | – | – | – | – | 362 | 387 | 394 | 415 | 306

Row | Sequence | apparent KD of MS2 coat protein (MS2 coat protein; input ligand: arginine 13.2 mM) [nM] | apparent KD of MS2 coat protein (MS2 coat protein; input ligand: none) [nM] | apparent KD of MS2 coat protein (MS2 coat protein; [2]) [nM] | apparent KD of MS2 coat protein (MS2 coat protein; [3]) [nM] | apparent KD of MS2 coat protein (MS2 coat protein; [4]) [nM] | apparent KD of K4 kissing-loop reporter ([1]; input ligand: FMN 200 uM) [nM] | apparent KD of K4 kissing-loop reporter ([1]; input ligand: arginine 13.2 mM) [nM] | apparent KD of K4 kissing-loop reporter ([1]; input ligand: none) [nM] | apparent KD of K4 kissing-loop reporter [1, 2] [nM] | apparent KD of K4 kissing-loop reporter [1, 4] [nM]
20 | CUCGAGUGAUGUUCGAUUAUUUAUACAGAUACCAGUGAAUUUUAACACCCUUGGCAGCUGGUAGUAUCUUUGUAAUUUUAACUAG [JR_ExcTheophyA_Sub003] | – | – | – | – | – | 133 | 181 | 147 | 176 | 111
21 | UCGGACCCUGGAGGAUAUGAGUCGAGUGAUGUUUGGCGGUCCAUGCCGGUGCGGCGUUAUGCCCUUUUAGAAGGCCAGGGUCCGA [#2 Exclusion - FMN B Attempt #13 (HarryS)] | – | – | – | – | – | 287 | 182 | 307 | 351 | 289
22 | UGUAUGUGAUUUGAUACCAGACCAGCUGAUGGAUCACGAGUGAUGUUCGUGUUGGUUUGGGUCCCUUGGCAGCAAAUCGCAUACU [KL-SSTheoB14] | – | – | – | – | – | 308 | 282 | 324 | 248 | 285
23 | CCAUUCUUUUACGAUACCAGUUUAAUAUAUUUAUUCAUAACCCUUGCCGAGUGAUGUUCGGACCCUUGGCAGCGUUUGCGAGAGG [lliltkmullin] | – | – | – | – | – | 303 | 308 | 392 | 404 | 239
24 | AGGAUCACGUCAGUGAUGUUGACAAGAGAUACCAGAGACGAAAGUCUCCCUUGGCAGCUCAUCGUGAUCCGUGACAAAGGUCACA [Omei KL hio A SS C v3] | – | – | – | – | – | 262 | 135 | 143 | 155 | 189
25 | AAGGCCACGAGAAGGAGCGUGUUGUGGAGUGAUGUUCCAUUGUAGACCUAAGGUCUACAAGCACAGGUAGGUCGCUCGUGGUCAA [Omei KL Arginine B SS A v5] | – | – | – | – | – | 131 | 120 | 132 | 112 | 119
26 | CGCCGGAAGGCGAGCGCUCCCACUCCGGAAGGAGCGCCCGAAAGGGCAGGUAGGUCGCCGGAGUGAUGUUCCGGUGGAGGGCUCG [#2 Exclusion - Arginine A Attempt #29 (Inspired by Omei)] | – | – | – | – | – | 125 | 119 | 121 | 371 | 187
27 | AUUCUAUUGUGAAGGAGCGCGUAUAGUAGUGAUGUUACUAUAAUGAUAGAUACUUAAUUCUCGCAGGUAGGUCGCACAAUAUAUA [JR_Nu_ExcArginiB_Sub024] | – | – | – | – | – | 117 | 77.5 | 98.8 | 85 | 89.8
28 | AAUUCAGUGAUGUUGGAAGGCAAGCGGGAUACCAGCGGAGAAUAACGCCCUUGGCAGCCCAUAUAUCCCAAAUAGAUAAUAGUUC [Same State - Theophylline A (Freestyle 4)] | – | – | – | – | – | 345 | 220 | 279 | 327 | 337
29 | UUUAUUAAGACGGCCGCCACUGAUUCAUAGUGAUGUUAUGAUAUAAUUUUAGUGAUUUUGAUUAGCAGGACCGGGUCAAUUAUUA [JR_ExcTryptoB_Sub016] | – | – | – | – | – | 221 | 179 | 196 | 194 | 172
30 | UUAGAGAUCUCAGGAUAUCAGUGAUGUUGGUGUUAAGAUCUGAGAUAGAAUUCUAUCUCAGAUCAAUGAGAAGGGAGAUCUCAUU [AK3 Exc FMN B] | – | – | – | – | – | 296 | 132 | 167 | 161 | 152
31 | GCGAACAUUCGCAGUGAUGUUGCGACGGAAGGAGCGCGUGAAAACGCAGGUAGGUCGCCGACAAAAUUAAUUUUAAUGUGUUCGC [Arginine A K4 27] | – | – | – | – | – | 373 | 440 | 488 | 471 | 315
32 | GUUACGCAUGGAAGGAGCGCUCUCCGGUUUAUUAACACAGUGAUGUUGUGAUUUUACCGAAAGCAGGUAGGUCGCCAUGUGUAAC [Ex Arginine B K4 12] | – | – | – | – | – | 356 | 320 | 416 | 381 | 372
33 | AAAGCAGUAUACUGCAAGACCUAUACUGAUACCAGAGUCAAUUGACUCCCUUGGCAGCGGAUCGAGUGAUGUUCGUAAGGUCAAA [AK4.1 SS Theophylline A] | – | – | – | – | – | 498 | 555 | 528 | 734 | 617
34 | CUAAUCGCUCAUGAUACCAGCUAGUGAUGUUAGCCCGUCAAGCUGAGGGUUCAUCCACCCAGCCCUUGGCAGCAUUCUCGGUCAG [theeternabot_exclusion_KL_Theo_B_8] | – | – | – | – | – | 441 | 313 | 387 | 449 | 364
35 | AAGCAGUCACUCGAACCCAUCGAAGAUGGUCGAGGACCGGUACGGCCGCCACUCGGAGUGAUGUUCCGCAGACUGCAAAAUAAAA | – | – | – | – | – | 376 | 464 | 426 | 511 | 312
36 | GUCUCAAAAGAGGCAAGCACUCACGAGGACAAGGAUAUCAUAUCAAUGAGAAGGUGUCCUCGUCCUUAGUGAUGUUAAGGAGUGC [Omei KL FMN A SS E v3] | – | – | – | – | – | 297 | 298 | 357 | 196 | 330
37 | CUGACCAACAGCGAUACCAGCGUGGAGUGAUGUUCCCUGGUCCGGGCUGAUGUUCCCUUGCGCCCUUGGCAGCGCAGAAGCAGGA [Exclusion Theophylline B GF 12] | – | – | – | – | – | 296 | 263 | 351 | 303 | 281
38 | AAUAAGGAGUGAUGUUCCAAGUGAUGUUAACGAGGACCGGUACGGCCGCCACUCGAUACGGCCGGAAAGUAAGAUAAACUAAAAU [Same State - Tryptophan A (Freestyle 2)] | – | – | – | – | – | 61 | 42.8 | 52.3 | 45.5 | 47.2
